Measurements from patent publication US20180009871A1 (INTARCIA THERAPEUTICS, published 2018).
Where no end group is shown, it is not given here. [ ]: non-standard residue; d: D form. Formula III = not defined here; Formula II = not defined here; Aib = CC(C)(N)C(=O)O

How the values were obtained:
Test in all cases: cell-based or functional assay
[1] = molecular target: human glucagon receptor (GCGR) (human, UniProt P47871 26-477)
[2] = molecular target: T1, human GLP-1 receptor (GLP-1R) (human, UniProt P43220 24-463)
[3] = molecular target: T1, human GLP-1 receptor (GLP-1R); remark: listed apart in the source

T1 sequence (P43220 24-463): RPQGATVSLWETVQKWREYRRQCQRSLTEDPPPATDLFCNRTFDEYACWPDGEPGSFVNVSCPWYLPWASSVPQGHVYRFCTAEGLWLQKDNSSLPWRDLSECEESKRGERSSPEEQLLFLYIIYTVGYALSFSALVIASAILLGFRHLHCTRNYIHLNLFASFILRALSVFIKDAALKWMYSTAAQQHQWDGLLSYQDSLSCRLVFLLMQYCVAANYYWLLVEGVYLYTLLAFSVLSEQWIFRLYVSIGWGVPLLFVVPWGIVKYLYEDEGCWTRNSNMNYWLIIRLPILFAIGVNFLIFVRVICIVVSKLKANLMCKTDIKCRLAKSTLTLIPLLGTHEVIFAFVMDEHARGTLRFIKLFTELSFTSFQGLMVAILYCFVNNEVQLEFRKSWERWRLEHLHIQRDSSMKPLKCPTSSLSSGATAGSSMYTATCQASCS

| Binder | GluR pEC 50 [1] | GLP-1R pEC 50 [2] | hGLP1 pEC50 (cAMP) [3] |
| --- | --- | --- | --- |
| YSHGTFTSDK(Formula II)SKYLD[Aib]KRAQEFVIWLEDEPSSGAPPPS-OH (reading uncertain) [Compound B27] | 11.5 pEC50 | 6.6 pEC50 |  |
| YSHGTFTSDYSKYLDK(Formula II)KRAQEFVIWLEDEPSSGAPPPS (reading uncertain) [Compound B26] | 11 pEC50 | < 6 pEC50 |  |
| YSQGTFTSDK(Formula III)SKYLDAARAQEFVKWLEDEPKSKSPPPS-NH2 (reading uncertain) [Compound B40] | 11.9 pEC50 | 7.2 pEC50 |  |
| YSQGTFTSDYSKYLDK(Formula III)ARAQEFVKWLEDEPKSKSPPPS-NH2 (reading uncertain) [Compound B39] | 10.9 pEC50 | 6 pEC50 |  |
| YSHGTFTSDYSKYLD[Aib]KRAQK(Formula III)FVIWLEDEPSSGAPPPS-OH (reading uncertain) [Compound B30] | 9.7 pEC50 | 7 pEC50 |  |
| YSHGTFTSDYSKYLDK(Formula III)ARAQEFVKWLEDEPSSGAPPPS-NH2 (reading uncertain) [Compound B47] | 10.8 pEC50 | < 6 pEC50 |  |
| YSHGTFTSDYSKYLDSARAQEFVK(Formula II)WLEDEPSSGAPPPS-NH2 (reading uncertain) [Compound B42] | 9.7 pEC50 | < 6 pEC50 |  |
| YSHGTFTSDYTRLLESKRAQEFVKWLEDEPSSGAPPPS [Compound A98] |  |  | < 9 pEC50 |
| YSHGTFTSDYSKYLDSARAQEFVK(Formula III)WLEDEPSSGAPPPS-NH2 (reading uncertain) [Compound B46] | 9.5 pEC50 | < 6 pEC50 |  |
| YSQGTFTSDYSKYLDAARAQEFVKWLEDEPKSK(Formula III)SPPPS-NH2 (reading uncertain) [Compound B37] | 10.1 pEC50 | 6.2 pEC50 |  |
| YSHGTFTSDYSKYLDK(Formula III)KRAQEFVIWLEDEPSSGAPPPS (reading uncertain) [Compound B31] | 10.6 pEC50 | 7.4 pEC50 |  |
| YSHGTFTSDYSKYLD[Aib]KRAQEFVIWLEDEPSSK(Formula III)APPPS-OH (reading uncertain) [Compound B29] | 9.8 pEC50 | 7 pEC50 |  |
| YSHGTFTSDYSKYLDAARAQEFVKWLEDEPSSGAPPPS [Compound A97] |  |  | < 9 pEC50 |
| YSHGTFTSDK(Formula II)SKYLDSARAQEFVKWLEDEPSSGAPPPS-NH2 (reading uncertain) [Compound B44] | 11.9 pEC50 | 7.2 pEC50 |  |
| YSQGTFTSDYSKYLDAARAQEFVKWLEDEPKSK(Formula II)SPPPS-NH2 (reading uncertain) [Compound B33] | 10.6 pEC50 | < 6 pEC50 |  |
| YSQGTFTSDK(Formula II)SKYLDAARAQEFVKWLEDEPKSKSPPPS-NH2 (reading uncertain) [Compound B36] | 11.5 pEC50 | 8.1 pEC50 |  |
| YSHGTFTSDK(Formula III)SKYLD[Aib]KRAQEFVIWLEDEPSSGAPPPS-OH (reading uncertain) [Compound B32] | 9.4 pEC50 | 7.8 pEC50 |  |
| YSHGTFTSDYSKYLD[Aib]KRAQEFVIWLEDEPSSK(Formula II)APPPS-OH (reading uncertain) [Compound B25] | 10.5 pEC50 | < 6 pEC50 |  |
| YSHGTFTSDYSKYLDSARAQEFVKWLEDEPSSK(Formula III)APPPS-NH2 (reading uncertain) [Compound B45] | 9.8 pEC50 | < 6 pEC50 |  |
| YSHGTFTSDYSKYLDSARAQEFVKWLEDEPSSK(Formula II)APPPS-NH2 (reading uncertain) [Compound B41] | 10.6 pEC50 | < 6 pEC50 |  |
| YSQGTFTSDYSKYLDAARAQEFVK(Formula III)WLEDEPKSKSPPPS-NH2 (reading uncertain) [Compound B38] | 9.6 pEC50 | 6 pEC50 |  |
| YSHGTFTSDYSKYLDK(Formula II)ARAQEFVKWLEDEPSSGAPPPS-NH2 (reading uncertain) [Compound B43] | 11.1 pEC50 | < 6 pEC50 |  |
| YSHGTFTSDK(Formula III)SKYLDSARAQEFVKWLEDEPSSGAPPPS-NH2 (reading uncertain) [Compound B48] | 9.2 pEC50 | < 6 pEC50 |  |
| YSQGTFTSDYSKYLDK(Formula II)ARAQEFVKWLEDEPKSKSPPPS-NH2 (reading uncertain) [Compound B35] | 11.1 pEC50 | 6.6 pEC50 |  |
| YSQGTFTSDYSKYLDAARAQEFVK(Formula II)WLEDEPKSKSPPPS-NH2 (reading uncertain) [Compound B34] | 9.8 pEC50 | < 6 pEC50 |  |
